Among the data in doi:10.1101/2023.01.28.526015 are stoichiometry N values, retold here.

As a reminder, the stoichiometry N is a count of units in the complex or per binding partner.

Test [1] has as its target DesAOMT, O-methyltransferase from Desulfuromonas acetoxidans (Desulfuromonas acetoxidans). Nature of the test: SEC. On the technique in general: In gel filtration, larger molecules generally elute earlier.
The target is the same in test [2]. The test can be described thus: crystal structure.
Test [3] has as its target StrAOMT, O-methyltransferase from Streptomyces avermitilis (Streptomyces avermitilis). The test can be described thus: crystal structure.
The target is the same in test [4]. The test can be described thus: crystal structure. This is another data set of the same source.

Like-named read-outs stand apart in the source and are kept apart here.

Regarding “DesAOMT, O-methyltransferase from Desulfuromonas acetoxidans (enzyme)”, the stoichiometry N in test [1] and in test [2] was 2 in each case.

Consider “StrAOMT, O-methyltransferase from Streptomyces avermitilis (enzyme)”, for which the stoichiometry N in test [3] and in test [4] was 2 throughout.
